The values that follow come from paper PMC5137418 (Nucleic Acids Research, 2016).

The assay has as its target His-RNMT (human, UniProt O43148 1-476). Briefly: pull-down; 2 μg GST or GST-RAM with equimolar His-RNMT and glutathione sepharose; 50 mM Tris–Cl pH 7.5, 250 mM NaCl, 0.03% Brij-35, 1 mM DTT, 4°C, 1 h; Coomassie stain. Particulars: both partners purified.

Chain of His-RNMT (O43148 whole entry): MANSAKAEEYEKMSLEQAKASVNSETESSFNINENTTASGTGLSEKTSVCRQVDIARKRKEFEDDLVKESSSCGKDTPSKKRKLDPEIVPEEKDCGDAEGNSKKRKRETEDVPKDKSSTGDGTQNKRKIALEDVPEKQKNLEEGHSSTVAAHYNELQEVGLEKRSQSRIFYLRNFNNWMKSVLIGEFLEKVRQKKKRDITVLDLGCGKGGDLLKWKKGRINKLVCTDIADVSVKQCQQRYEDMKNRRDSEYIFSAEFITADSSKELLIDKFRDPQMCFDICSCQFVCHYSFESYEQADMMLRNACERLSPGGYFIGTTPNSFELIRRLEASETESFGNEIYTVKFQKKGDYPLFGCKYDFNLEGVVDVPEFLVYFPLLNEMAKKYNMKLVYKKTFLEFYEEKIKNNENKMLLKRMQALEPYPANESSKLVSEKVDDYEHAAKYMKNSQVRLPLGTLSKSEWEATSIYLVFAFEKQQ

For TDTAEAVPKFEEMFASRFTENDKEYQEYLKRPPESPPIVEEWNS (domain or fragment, human, UniProt Q9BTL3 2-45, looked up) [GST-RAM 2–45], the binding result is “binds”.
